Source: patent US20240301373, “FANZORS ARE RNA-GUIDED NUCLEASES ENCODED IN EUKARYOTIC GENOMES” (Massachusetts Institute of Technology, published 2024)

What was measured:
BaFNuc = molecular target: T1, BaFNuc (Batillaria attramentaria); assay: pulldown; co-purified fRNA sequenced
T1 chain: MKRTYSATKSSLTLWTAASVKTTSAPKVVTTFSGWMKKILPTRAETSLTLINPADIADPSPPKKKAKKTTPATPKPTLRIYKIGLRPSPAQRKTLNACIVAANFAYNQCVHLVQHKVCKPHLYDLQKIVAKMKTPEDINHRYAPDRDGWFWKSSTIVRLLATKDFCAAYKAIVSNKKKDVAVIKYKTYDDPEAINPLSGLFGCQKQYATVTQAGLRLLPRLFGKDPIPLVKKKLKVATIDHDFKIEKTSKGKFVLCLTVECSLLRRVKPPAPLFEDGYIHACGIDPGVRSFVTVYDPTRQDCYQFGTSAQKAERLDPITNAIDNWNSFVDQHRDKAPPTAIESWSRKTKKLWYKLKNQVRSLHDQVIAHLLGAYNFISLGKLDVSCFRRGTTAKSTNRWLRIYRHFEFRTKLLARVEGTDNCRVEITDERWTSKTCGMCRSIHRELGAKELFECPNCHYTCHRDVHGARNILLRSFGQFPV
Text: (§1) This study sought to explore whether Fanzor2 proteins from diverse eukaryotes also are active RNA-guided nucleases. Three Fanzor2 representatives from three animals and a Fanzor1 representative from a plant were chosen for this study: 1) Fanzor2 from Aercenaria mercenaria (Venus clam, MmFNuc), 2) Fanzor2 from Dreissena polymorpha (Zebra mussel, DpFNuc), 3) Fanzor2 from Batillaria attramentaria (Japanese mud snail; BaFNuc), and 4) Fanzor1 from Klebsormidium nitens (freshwater green algae; KnFNuc) (FIG. 21A). […] Constructs for co-expression of the fRNA and Fanzor nuclease were cloned in a cell-free transcription/translation system, allowing for isolation of the resulting RNPs to study their fRNA sequences and cleavage activity (FIG. 21B). […] These fRNAs were highly structured with diverse structural motifs and domains (FIG. 28B).

MmFNuc = molecular target: T2, MmFNuc (Mercenaria mercenaria); assay: pulldown; co-purified fRNA sequenced
T2 chain: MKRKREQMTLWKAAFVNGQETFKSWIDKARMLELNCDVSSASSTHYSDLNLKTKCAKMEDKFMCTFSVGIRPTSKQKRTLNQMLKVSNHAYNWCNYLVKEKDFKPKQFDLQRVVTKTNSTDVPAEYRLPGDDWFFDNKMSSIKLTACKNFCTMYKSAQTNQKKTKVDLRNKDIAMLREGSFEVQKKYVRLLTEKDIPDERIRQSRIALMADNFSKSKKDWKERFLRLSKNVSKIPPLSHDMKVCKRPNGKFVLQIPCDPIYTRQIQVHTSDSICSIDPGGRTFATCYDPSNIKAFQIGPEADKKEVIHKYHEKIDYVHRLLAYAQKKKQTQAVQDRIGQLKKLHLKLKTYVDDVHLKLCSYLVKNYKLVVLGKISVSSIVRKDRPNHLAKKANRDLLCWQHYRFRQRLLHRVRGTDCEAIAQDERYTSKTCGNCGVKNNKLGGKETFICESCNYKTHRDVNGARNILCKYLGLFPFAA
Text: as §1

KnFNuc (Fanzor1) = molecular target: T3, KnFNuc (Fanzor1) (Klebsormidium nitens); assay: pulldown; co-purified fRNA sequenced
T3 chain: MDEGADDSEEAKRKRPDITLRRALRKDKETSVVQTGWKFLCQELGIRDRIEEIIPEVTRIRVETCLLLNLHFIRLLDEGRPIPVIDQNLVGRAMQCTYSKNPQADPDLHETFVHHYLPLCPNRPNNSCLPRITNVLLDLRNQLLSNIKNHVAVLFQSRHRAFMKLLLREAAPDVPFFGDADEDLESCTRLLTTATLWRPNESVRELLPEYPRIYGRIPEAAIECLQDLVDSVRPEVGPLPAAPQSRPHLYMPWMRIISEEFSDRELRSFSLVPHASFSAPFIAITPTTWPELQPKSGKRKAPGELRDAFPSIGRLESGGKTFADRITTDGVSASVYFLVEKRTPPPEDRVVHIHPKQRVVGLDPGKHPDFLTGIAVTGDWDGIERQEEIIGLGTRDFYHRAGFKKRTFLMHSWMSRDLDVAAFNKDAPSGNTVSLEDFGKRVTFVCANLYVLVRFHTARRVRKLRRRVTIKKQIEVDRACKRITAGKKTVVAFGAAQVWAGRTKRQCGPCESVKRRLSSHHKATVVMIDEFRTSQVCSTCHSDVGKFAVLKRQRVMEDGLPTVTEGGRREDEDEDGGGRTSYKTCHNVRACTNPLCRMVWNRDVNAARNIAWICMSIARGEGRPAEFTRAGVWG
Text: as §1

DpFNuc = molecular target: T4, DpFNuc (Dreissena polymorpha); assay: pulldown; co-purified fRNA sequenced
T4 chain: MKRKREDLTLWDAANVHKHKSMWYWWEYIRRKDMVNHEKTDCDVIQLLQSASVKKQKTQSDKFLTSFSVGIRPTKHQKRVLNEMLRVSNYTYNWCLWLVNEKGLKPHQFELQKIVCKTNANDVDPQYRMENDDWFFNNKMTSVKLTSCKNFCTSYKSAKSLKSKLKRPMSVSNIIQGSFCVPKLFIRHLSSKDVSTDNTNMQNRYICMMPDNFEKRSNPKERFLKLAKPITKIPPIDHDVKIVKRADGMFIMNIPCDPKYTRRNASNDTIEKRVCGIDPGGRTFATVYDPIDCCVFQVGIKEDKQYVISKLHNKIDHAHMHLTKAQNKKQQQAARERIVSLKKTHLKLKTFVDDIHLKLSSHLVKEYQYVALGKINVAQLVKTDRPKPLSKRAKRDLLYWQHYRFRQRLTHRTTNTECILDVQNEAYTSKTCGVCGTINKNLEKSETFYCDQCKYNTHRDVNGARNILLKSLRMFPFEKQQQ
Text: as §1

[1] = molecular target: T5, ApmFNuc (ApmHNuc, Isvmimi Fanzor2) (Acanthamoeba polyphaga mimivirus, UniProt Q5UPQ8 SEQ:1-520); assay: pulldown; co-purified fRNA identified by small RNA sequencing; details: tags: Strep tag; RNP co-expressed with fRNA in E. coli
T5 sequence: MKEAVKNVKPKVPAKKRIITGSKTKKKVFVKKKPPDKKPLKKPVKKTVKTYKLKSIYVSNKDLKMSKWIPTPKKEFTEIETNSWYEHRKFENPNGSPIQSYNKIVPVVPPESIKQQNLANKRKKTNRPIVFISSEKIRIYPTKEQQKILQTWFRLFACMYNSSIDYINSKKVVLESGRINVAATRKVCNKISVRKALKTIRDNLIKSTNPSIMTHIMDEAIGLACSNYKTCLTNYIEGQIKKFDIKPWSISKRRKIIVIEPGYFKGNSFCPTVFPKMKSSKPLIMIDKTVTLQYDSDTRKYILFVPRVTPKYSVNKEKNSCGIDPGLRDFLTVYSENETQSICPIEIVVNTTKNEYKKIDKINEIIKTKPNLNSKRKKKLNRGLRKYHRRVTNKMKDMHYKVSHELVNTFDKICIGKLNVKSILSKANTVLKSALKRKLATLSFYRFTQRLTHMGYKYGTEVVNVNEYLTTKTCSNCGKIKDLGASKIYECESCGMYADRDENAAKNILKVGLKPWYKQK

B1: BaFNuc fRNA scaffold (ssRNA)
RNA: CGCUCGAGUGGAGGGAACUGACAACUGUAGAGUGGAGAUCACCGACGAACGCUGGACCUCAAAGACGUGUGGCAUGUGCAGAUCCAUCCACCGCGAACUUGGGGCAAAAGAACUAUUCGAGUGCCCCAACUGCCACUACACCUGCCACAGAGACGUGCACGGAGCUCGAAACAUCUUGCUGAGAAGCUUCGGACAGUUUCCAGUCUAGAAAAACACGAACUUUUUCCUUGGCCCAAGGAUUGCCAAACACCACUCAAAUCCUCGUUCAGGGGCCUCGAGUGGCUGGGCAUAUAUGGGUUA
- binding result (BaFNuc): binds

B2: MmFNuc fRNA scaffold (ssRNA)
RNA: ACUUCCAAGACCUGUGGUAAUUGCGGUGUGAAGAACAACAAACUUGGUGGAAAGGAAACGUUUACUUGUGAGUGUUGCAAUUACAAAACUCAUCGAGACGUCAACGGAGCGAGAAACAUUCUGUGCAAAUACUUGAAACUUUUUCCAUUCGCAGCAUAACGAAAGAAACUGACAAUCGAUUUUUUCGGGUUCGAUUCUAUCCCACUUGACUCAAAGAGUCAGAGGGCUCGAAUACAUUUUCUGCACAGGUUUUGCUAAUGCAAGAUCUGGGGCAAGAAUGUGUUCGGGUCAAAUGAGUUA
- binding result (MmFNuc): binds

B3: KnFNuc fRNA scaffold (ssRNA)
RNA: GGAGGAGGGAGGACAAGCUACAAGACGUGCCACAACGUGCGAGCGUGUACGAACCCGCUCUGUCGCAUGGUGUGGAAUAGAGACGUCAACGCAGCUCGUAACAUAGCUUGGAUCUGUAUGAGCAUAGUCAGAGGCGAGGGCAGGCCAGCGGAGUUCACGAGAGCAGGAAUGUGAGGAUGACUGAGAAUUAGUCGAAAGACAUAGCUGCCUAGAAACGAGUUCAUCUAGGCACUUCGGUGAGAAUCCGAGAUACGGCUGGGUACUGUGGCGAGUGUGCCAUUUUACUCUGAACAGACUGUA
- binding result (KnFNuc (Fanzor1)): binds

B4: DpFNuc fRNA scaffold (ssRNA)
RNA: AUUGGAUGUUCAAAAUGAAGCAUACACUUCGAAGACGUGUGGAGUGUGUGGAACAAUAAACAAAAAUCUAGAAAAGAGUGAAACAUUUUAUUGCGAUAACUGCAAAUAUAACACACACAGAGACGUUAAUGGUGCUAGAAAUAUUUUGCUAAAAUCGUUGCGCAUGUUUCCAUUUGUCAAUUCGCAGUUAUAAUUACUCUGUAACAAUUAGGUCGAUCCAUCCUAAAUUCGAAAGUCCAUUGCUACGAGACUUUGCGUAUGCUUAGUCCAGGGCAAUUUUCUGCCGAAUGAAAUGGGUUA
- binding result (DpFNuc): binds

B5: ApmFNuc fRNA scaffold (21 nt 3' guide appended) (ssRNA)
RNA: AAAAAUAGUCUAAUAAAAUCAGGGGUACAUUCCGCUAGUACUCCACCCUACGGGUUAAGCAAAUGAGAAUAUCGAAACGGUAUGCACAGGAUUCUUCGAGUGAUAAUCUUAGGAUGACUCACUAAGGAGAUGACUAAAGUGUAUCAUUCAAUAUUGUAUUGAACGGUAUUCUUCCAUAGAGAGUUGAUUUUUGGAGUAUCCAGAAAUAUCAACUUUUUAUGAGCGG
- binding result [1]: binds
